From patent US20210388082A1 (NEWBIO THERAPEUTICS, published 2021) come the findings set out here.

Test [1] addresses T1, CD79b on the surface of human lymphoma cell lines (human, UniProt P40259 29-229).
T1 sequence (looked up): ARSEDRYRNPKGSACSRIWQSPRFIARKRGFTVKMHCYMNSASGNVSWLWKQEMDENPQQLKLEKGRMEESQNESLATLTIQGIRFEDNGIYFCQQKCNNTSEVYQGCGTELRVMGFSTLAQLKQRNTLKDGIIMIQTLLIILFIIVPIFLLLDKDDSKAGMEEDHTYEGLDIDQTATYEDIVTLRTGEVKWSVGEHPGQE
The test can be described thus: cell-based or functional assay.

Test [2] addresses T1, CD79b on the surface of human lymphoma …. The test can be described thus: cell-based or functional assay. This is another data set of the same source.
Test [3] addresses T2, recombinant human CD79b extracellular domain protein (human, UniProt P40259 29-159).
T2 construct: Bought protein; also called CD79b ECD; human CD79b-ECD
T2 sequence: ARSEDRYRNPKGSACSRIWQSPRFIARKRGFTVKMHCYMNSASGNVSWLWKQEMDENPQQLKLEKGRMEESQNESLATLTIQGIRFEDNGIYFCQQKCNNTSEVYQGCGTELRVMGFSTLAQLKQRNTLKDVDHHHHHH
The test can be described thus: SPR (Biacore T200), antibody on CM5 chip, CD79b ECD as analyte, 25 C. On the procedure:
The assay was performed on a Biacore T200 (GE) machine, and the antibody to be tested was diluted to 10 ug/ml with HBS-EP (GE, BR100826) buffer according to the instruction of Amine-Coupling Kit (GE, BR-1000-50). The antibody to be tested was immobilized on a CM5 chip (GE, BR-1006-68) at a fixing time of 300 sec and a flow rate of 10 ul/min. Different concentrations (0.25 nm, 0.5 nm, 1 nm, 2 nm, 4 nm, 8 (×2) nm, 16 nm) of the recombinant CD79b extracellular domain protein diluted with HBS buffer gradient was subjected to capture reaction by Kinetics program, with the binding time of the antigen-antibody set to 300 seconds, dissociation time set to 900 seconds, flow rate of the antigenic protein to 30 ul/min. The dissociation curves were fitted to calculate the KD values of the different antibodies. The above experiments were all carried out at 25° C.
The affinity of the antibody after humanization was tested by the method described in Section 4 of the “Materials and Methods” section.

The target in test [4] is T1, CD79b on the surface of human lymphoma …. The test can be described thus: cell-based or functional assay. This is another data set of the same source.
In test [5] the target is T2, recombinant human CD79b extracellular …. The test can be described thus: ELISA, plate coated with human CD79b-ECD. On the procedure: (§1) The experimental procedure was as follows: 96-well plates (Corning, CAT #9018) were coated with 100 μL/well of antigen (human CD79b-ECD, novoprotein, CA29) at 1 μg/mL in PBS (10 mM phosphate, 138 mM NaCl, pH 7.2) at 4° C. overnight, and then blocked with 250 ul/well of blocking solution (PBS+1% BSA (Sangon, CAT #A0332)) for one to three hours at 25° C. Plates were washed 3 times with a washing solution (PBS+0.05% Tween-20 (Sangon, CAT #TB0560)), and then incubated with 100 μL of anti-CD79b antibody in serial dilutions in blocking solution in duplicate wells at 25° C. for 2 h. Plates were washed 3 times with washing solution and then incubated with 100 μL of 1:10,000 the secondary antibody (anti-mouse IgG (Fc)-HRP, Sigma, CAT #A00168 or anti-human IgG F(ab′)2-HRP, Sigma, CAT #A0293) at 25° C. for 1 h. Plates were washed 3 times with washing solution, and then 100 μL of TMB (Sangon, CAT #TB0954) was added to each well and incubated at 25° C. until color developed (approximately 15 min). Reactions were stopped by addition of 100 μl/well stop solution (1N H2SO4). OD450/630 nm was read on plate reader in 10 minutes.

Test [6] shares this target. The test can be described thus: ELISA, plate coated with human CD79b-ECD. The method, then:
as §1
The in vitro binding activity of the anti-CD79b humanized antibody to the extracellular domain of human CD79b was examined by ELISA as described in Section 1 of the Materials and Methods section.
This is another data set of the same source. (In general: An ELISA detects its analyte on a solid surface through an enzyme-linked reagent.)

The target is the same in test [7]. The test can be described thus: indirect ELISA, plate coated with CD79b antigen. The method, then: An ELISA anti-antibody was added to bind with the antibody or ADC antibody bound to the solid phase antigen, and unbound anti-antibody was removed by washing. Substrate solution was added, and then the optical density (OD) value at 450 nm/630 nm was read with a microplate reader T, based on which a curve was plotted, and the EC₅₀ was calculated.

B1: recombinant chimeric antibody 104E1 conjugated to BMP-vcMMAE (other)
VH: QVQLQQSGSELARPGASVKLSCKTSGNTFTSYGINWVKQRTGQGLEWIGEIFPRSGNIYYNEKFKGKATLTADKSSSTAYMELRSLTSEDSAVYFCAKGGTGDFDYWGQGTTLTVSS
VL: DVLMTQTPLSLPVSLGDQASISCRSSQNIVHSDGNTYLEWYLQKPGQSPKLLIYKVSFRLSGVPDRFSGSGSGTDFTLKIRRVEAEDLGTYYCFQGSHVPWTFGGGTKLEIK
modifications: antibody conjugated to BMP-vcMMAE (linker-drug 1); positions not given
Turning to B1, in test [1], the “Inhibitory activity on lymphoma cell proliferation IC50, BJAB” value was 0.0104 µg/mL; the “Inhibitory activity on lymphoma cell proliferation IC50, DoHH2” value was 0.00575 µg/mL; the “Inhibitory activity on lymphoma cell proliferation IC50, Granta-519” value came out at 0.0208 µg/mL; the “Inhibitory activity on lymphoma cell proliferation IC50, Ramos” value turned out to be 0.00602 µg/mL. Also, in test [1], the “Inhibitory activity on lymphoma cell proliferation IC50, SU-DHL-4” value was 0.0119 µg/mL; the “Inhibitory activity on lymphoma cell proliferation IC50, U-698-M” value was 0.00952 µg/mL; the “Inhibitory activity on lymphoma cell proliferation IC50, WSU-DLCL2” value turned out to be 0.0182 µg/mL. For the same molecule, in test [2], the “Inhibitory effect on the lymphoma cell proliferation IC50, BJAB” value worked out at 0.00881 µg/mL; the “Inhibitory effect on the lymphoma cell proliferation IC50, DoHH2” value worked out at 0.00426 µg/mL; the “Inhibitory effect on the lymphoma cell proliferation IC50, Granta-519” value worked out at 0.0296 µg/mL; the “Inhibitory effect on the lymphoma cell proliferation IC50, Ramos” value stood at 0.00442 µg/mL. Moreover, in test [2], the “Inhibitory effect on the lymphoma cell proliferation IC50, SU_DHL-4” value was 0.00946 µg/mL; the “Inhibitory effect on the lymphoma cell proliferation IC50, U-698-M” value was determined as 0.0159 µg/mL; the “Inhibitory effect on the lymphoma cell proliferation IC50, WSU-DLCL2” value came out at 0.0168 µg/mL.

B2: recombinant human-mouse chimeric antibody 104E1 (antibody, V domains shown)
VH: QVQLQQSGSELARPGASVKLSCKTSGNTFTSYGINWVKQRTGQGLEWIGEIFPRSGNIYYNEKFKGKATLTADKSSSTAYMELRSLTSEDSAVYFCAKGGTGDFDYWGQGTTLTVSS
VL: DVLMTQTPLSLPVSLGDQASISCRSSQNIVHSDGNTYLEWYLQKPGQSPKLLIYKVSFRLSGVPDRFSGSGSGTDFTLKIRRVEAEDLGTYYCFQGSHVPWTFGGGTKLEIK
notes: also called chimeric 104E1
One may read the Kd as a measure of binding affinity in units of concentration. One may read the koff as the rate constant with which the complex falls apart. In general, kon refers to the second-order rate constant of association. For B2, in test [3], the equilibrium dissociation constant (Kd) was 0.0341 nM, the dissociation rate constant (koff) was 5.52e-05 s⁻¹ and the kon came to 1.62e+06 M⁻¹ s⁻¹.

B3: murine anti-CD79b monoclonal antibody 104E1 (antibody, V domains shown)
VH: QVQLQQSGSELARPGASVKLSCKTSGNTFTSYGINWVKQRTGQGLEWIGEIFPRSGNIYYNEKFKGKATLTADKSSSTAYMELRSLTSEDSAVYFCAKGGTGDFDYWGQGTTLTVSS
VL: DVLMTQTPLSLPVSLGDQASISCRSSQNIVHSDGNTYLEWYLQKPGQSPKLLIYKVSFRLSGVPDRFSGSGSGTDFTLKIRRVEAEDLGTYYCFQGSHVPWTFGGGTKLEIK
notes: Mouse hybridoma antibody, tested as supernatant; also called murine antibody 104E1
Usually EC50 stands for the concentration at which the effect is half-maximal. As for B3, the “IC50 against BJAB (secondary ADC assay with HB58-ADC)” value in test [4] amounted to 0.0093 µg/mL. Moreover, the EC50 in test [5] was 0.0149 µg/mL.

B4: Humanized antibody AS11259 (antibody, human IgG1, kappa)
heavy: not shown
light: DVVMTQSPLSLPVTLGQPASISCRSSQNIVHSDGNTYLEWYQQRPGQSPRLLIYKVSFRLSGVPDRFSGSGSGTDFTLKISRVEAEDVGVYYCFQGSHVPWTFGGGTKVEIKRTVAAPSVFIFPPSDEQLKSGTASVVCLLNNFYPREAKVQWKVDNALQSGNSQESVTEQDSKDSTYSLSSTLTLSKADYEKHKVYACEVTHQGLSSPVTKSFNRGEC
notes: Humanized IgG1 / kappa; also called naked antibody AS11259
Take B4: the EC50 in test [6] was 0.0583 µg/mL. For the same molecule, the EC50 in test [7] is 0.0178 µg/mL. Also, in test [3], the Kd was 0.0216 nM, the koff was 3.63e-05 s⁻¹ and the on-rate (kon) was determined as 1.68e+06 M⁻¹ s⁻¹.

B5: Humanized antibody AS11252 (antibody, human IgG1, kappa)
heavy: not shown
light: DVVMTQSPLSLPVTLGQPASISCRSSQNIVHSDGNTYLEWYQQRPGQSPRLLIYKVSFRLSGVPDRFSGSGSGTDFTLKISRVEAEDVGVYYCFQGSHVPWTFGGGTKVEIKRTVAAPSVFIFPPSDEQLKSGTASVVCLLNNFYPREAKVQWKVDNALQSGNSQESVTEQDSKDSTYSLSSTLTLSKADYEKHKVYACEVTHQGLSSPVTKSFNRGEC
notes: Humanized IgG1 / kappa
For B5, the EC50 in test [6] stood at 0.0499 µg/mL. Also, in test [3], the equilibrium dissociation constant (Kd) came to 0.0285 nM, the off-rate constant (koff) was 4.22e-05 s⁻¹ and the kon was found to be 1.48e+06 M⁻¹ s⁻¹.

B6: Humanized antibody AS11161 (antibody, human IgG1, kappa, V domains shown)
VH: QVQLVQSGAEVKKPGSSVKVSCKTSGNTFTSYGINWVRQAPGQGLEWMGEIFPRSGNIYYNEKFKGKVTITADKSTSTAYMELSSLRSEDTAVYYCAKGGTGDFDYWGQGTLVTVSS
VL: DVVMTQSPLSLPVTLGQPASISCRSSQNIVHSDGNTYLEWYQQRPGQSPRLLIYKVSFRLSGVPDRFSGSGSGTDFTLKISRVEAEDVGVYYCFQGSHVPWTFGGGTKVEIKR
notes: Humanized IgG1 / kappa
With B6, the EC50 in test [6] was determined as 0.0431 µg/mL. In test [3], the dissociation constant Kd was determined as 0.014 nM, the dissociation rate constant (koff) stood at 2.84e-05 s⁻¹ and the kon was determined as 2.02e+06 M⁻¹ s⁻¹.

B7: Humanized antibody AS11254 (antibody, human IgG1, kappa, V domains shown)
VH: QVQLVQSGAEVKKPGASVKVSCKTSGNTFTSYGINWVKQAPGQGLEWMGEIFPRSGNIYYNEKFKGRVTITADKSTSTAYMELSSLRSEDTAVYYCAKGGTGDFDYWGQGTLVTVSS
VL: DVVMTQSPLSLPVTLGQPASISCRSSQNIVHSDGNTYLEWYQQRPGQSPRLLIYKVSFRLSGVPDRFSGSGSGTDFTLKISRVEAEDVGVYYCFQGSHVPWTFGGGTKVEIKR
notes: Humanized IgG1 / kappa
For the molecule B7, in test [6], the EC50 was found to be 0.0501 µg/mL. In test [3], the Kd was determined as 0.0187 nM, the dissociation rate constant (koff) was found to be 2.87e-05 s⁻¹ and the kon came out at 1.53e+06 M⁻¹ s⁻¹.

B8: Humanized antibody AS11164 (antibody, human IgG1, kappa, V domains shown)
VH: QVQLVQSGAEVKKPGSSVKVSCKTSGNTFTSYGINWVRQAPGQGLEWMGEIFPRSGNIYYNEKFKGKVTITADKSTSTAYMELSSLRSEDTAVYYCAKGGTGDFDYWGQGTLVTVSS
VL: DVLMTQSPLSLPVTLGQPASISCRSSQNIVHSDGNTYLEWYQQRPGQSPKLLIYKVSFRLSGVPDRFSGSGSGTDFTLKISRVEAEDVGVYYCFQGSHVPWTFGGGTKVEIKR
notes: Humanized IgG1 / kappa
Regarding B8, the EC50 in test [6] was determined as 0.064 µg/mL. For the same molecule, in test [3], the dissociation constant (Kd) was determined as 0.0128 nM, the koff turned out to be 2.44e-05 s⁻¹ and the kon is 1.91e+06 M⁻¹ s⁻¹.
